Measurements from US20150152192A1 (SAMSUNG ELECTRONICS, published 2015).

B1: SAIT-ANG-2-AB-2-E6 (scFv form) (scFv, V domains shown)
VH: EVQLLESGGGLVQTGGSLRLSCAASGFTFSDYAMSWVRQAPGKGLEWVSAIYPDSGNKYYADSVKGRFTISRDNSKNTLYLQMNSLRAEDTAVYYCARHSSDPKVKSGYYDDGMDVWGQGTLVAVSS
VL: QSVLTQPPSASGTPGQRVTISCSGSSSNIGNNAVNWYQQLPGTAPKLLIYADSNRPSGVPDRFSGSKSGTSASLAISGLRSEDEADYYCGSWDYSLSGYVFGGGTKLTVLG
notes: scFv from a phage display library, partly purified from E. coli periplasm on Ni-NTA and detected with anti-HA
B2: SAIT-ANG-2-AB-4-F11 (scFv form) (scFv, V domains shown)
VH: EVQLLESGGGLVQTGGSLRLSCAASGFTFSDYAMSWVRQAPGKGLEWVSSIYPDDGNTYYADSVKGRFTISRDNSKNTLYLQMNSLRAEDTAVYYCAKHPVRLNLHPMYYYYGMDVWGQGTLVTVSS
VL: QSVLTQPPSASGTPGQRVTISCTGSSSNIGNNAVSWYQQLPGTAPKLLIYSDSQRPSGVPDRFSGSKSGTSASLAISGLRSEDEADYYCATWDYSLSAYVFGGGTKLTVLG
notes: scFv from a phage display library
B3: SAIT-ANG-2-AB-8-A5 (scFv form) (scFv, V domains shown)
VH: EVQLLESGGGLVQPGGSLRLSCAASGFTFSDYYMSWVRQAPGKGLEWVSGIYPSGGSTYYADSVKGRFTISRDNSKNTLYLQMNSLRAEDTAVYYCARDPSTLTYAGFDYWGQGTLVTVSS
VL: QSVLTQPPSASGTPGQRVTISCSGSSSNIGNNYVTWYQQLPGTAPKLLIYADSHRPSGVPDRFSGSKSGTSASLAISGLRSEDEADYYCATWDYSLSGYVFGGGTKLTVLG
notes: as for B2
B4: SAIT-ANG-2-AB-7-C9 (scFv form) (scFv, V domains shown)
VH: EVQLLESGGGLVQPGGSLRLSCAASGFTFSNYAMSWVRQAPGKGLEWVSAISSGGGNIYYADSVKGRFTISRDNSKNTLYLQMNSLRAEDTAVYYCAKSGIQPSPPSMSSAYAMDVWGQGTLVTVSS
VL: QSVLTQPPSASGTPGQRVTISCSGSSSNIGNNDVYWYQQLPGTAPKLLIYANSHRPSGVPDRFSGSKSGTSASLAISGLRSEDEADYYCGTWDYSLSGYVFGGGTKLTVLG
notes: as for B2
B5: SAIT-ANG-2-AB-4-F5 (scFv form) (scFv, V domains shown)
VH: EVQLLESGGGLVQPGGSLRLSCAASGFTFSDYDMSWVRQAPGKGLEWVSSISHGDSNKYYADSVKGRFTISRDNSKNTLYLQMNSLRAEDTAVYYCAKSSGIQESPPTYYYYGMDVWGQGTLVTVSS
VL: QSVLTQPPSASGTPGQRVTISCSGSSSNIGSNAVNWYQQLPGTAPKLLIYADSNRPSGVPDRFSGSKSGTSASLAISGLRSEDEADYYCGSWDYSLSGYVFGGGTKLTVLG
notes: as for B2
B6: SAIT-ANG-2-AB-3-D3 (scFv form) (scFv, V domains shown)
VH: EVQLLESGGGLVQPGGSLRLSCAASGFTFSDYDMSWVRQAPGKGLEWVSGISSDDGNTYYADSVKGRFTISRDNSKNTLYLQMNSLRAEDTAVYYCARPTIDKYTLRGYYSYGMDVWGQGTLVTVSS
VL: QSVLTQPPSASGTPGQRVTISCTGSSSNIGSNYVSWYQQLPGTAPKLLIYSDNKRPSGVPDRFSGSKSGTSASLAISGLRSEDEADYYCGTWDDSLNGYVFGGGTKLTVLG
notes: as for B2
B7: SAIT-ANG-2-AB-4-C11 (scFv form) (scFv, V domains shown)
VH: EVQLLESGGGLVQPGGSLRLSCAASGFTFSDYAMSWVRQAPGKGLEWVSSIYPDDGNTYYADSVKGRFTISRDNSKNTLYLQMNSLRAEDTAVYYCARHTSHHTSIDGYYYYGMDGWGQGTLVTVSS
VL: QSVLTQPPSASGTPGQRVTISCTGSSSNIGNNDVSWYQQLPGTAPKLLIYSDSKRPSGVPDRFSGSKSGTSASLAISGLRSEDEADYYCGSWDYSLSGYVFGGGTKLTVLG
notes: as for B2

Key:
[1] = molecular target: T1, Ang2 with P452 mutated with alanine, tagged with FLAG (human, UniProt O15123 19-496, limits assumed); assay: ELISA, scFv coated, 250 ng FLAG-tagged Ang2 mutant, anti-FLAG-HRP
T1 sequence: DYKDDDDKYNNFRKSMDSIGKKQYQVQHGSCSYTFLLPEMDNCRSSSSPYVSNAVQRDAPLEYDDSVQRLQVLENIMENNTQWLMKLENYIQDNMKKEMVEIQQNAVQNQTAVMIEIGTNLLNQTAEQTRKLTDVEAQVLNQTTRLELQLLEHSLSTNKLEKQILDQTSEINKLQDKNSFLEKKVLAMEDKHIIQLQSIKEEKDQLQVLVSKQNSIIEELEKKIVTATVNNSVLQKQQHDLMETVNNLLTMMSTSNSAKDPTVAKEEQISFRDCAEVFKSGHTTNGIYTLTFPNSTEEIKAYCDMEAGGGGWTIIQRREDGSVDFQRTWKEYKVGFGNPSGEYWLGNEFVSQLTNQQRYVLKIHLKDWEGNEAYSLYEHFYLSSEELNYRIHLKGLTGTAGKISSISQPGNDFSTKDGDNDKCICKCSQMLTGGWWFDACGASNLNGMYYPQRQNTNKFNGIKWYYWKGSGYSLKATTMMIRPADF
Experimental: (§1) A 96-well MaxiSorp™ flat-bottom plate (Nunc) was coated with 50 μl of the anti-Ang2 scFv selected above. After that, the plate was washed five times with 0.05% (v/v) Tween-20-containing PBS and then blocked with 1% (v/v) BSA-containing PBS at a room temperature for 2 hours. […] Thereafter, the plate was washed five times with 0.05% Tween-20-containing PBS and then, an HRP-conjugated anti-FLAG antibody (SIGMA) diluted in 1% (v/v) BSA-containing PBS at 1:5,000 ratio (v/v) was added in the amount of 50 μl to each well to react at a room temperature for 1 hour, followed by washing five times with 0.1% (v/v) Tween-20-containing PBS.
(§2) Finally, 100 μl of TMB substrate (cell signal) was added to each well of the plate to induce color development and then, the reaction was ceased by the addition of 50 μl of 5N H₂SO₄ solution and OD450 values were measured on a plate reader (Molecular Devices).

[2] = molecular target: T2, Ang2 with Y460 mutated with alanine, tagged with FLAG (human, UniProt O15123 19-496, limits assumed); assay: as above
T2 sequence: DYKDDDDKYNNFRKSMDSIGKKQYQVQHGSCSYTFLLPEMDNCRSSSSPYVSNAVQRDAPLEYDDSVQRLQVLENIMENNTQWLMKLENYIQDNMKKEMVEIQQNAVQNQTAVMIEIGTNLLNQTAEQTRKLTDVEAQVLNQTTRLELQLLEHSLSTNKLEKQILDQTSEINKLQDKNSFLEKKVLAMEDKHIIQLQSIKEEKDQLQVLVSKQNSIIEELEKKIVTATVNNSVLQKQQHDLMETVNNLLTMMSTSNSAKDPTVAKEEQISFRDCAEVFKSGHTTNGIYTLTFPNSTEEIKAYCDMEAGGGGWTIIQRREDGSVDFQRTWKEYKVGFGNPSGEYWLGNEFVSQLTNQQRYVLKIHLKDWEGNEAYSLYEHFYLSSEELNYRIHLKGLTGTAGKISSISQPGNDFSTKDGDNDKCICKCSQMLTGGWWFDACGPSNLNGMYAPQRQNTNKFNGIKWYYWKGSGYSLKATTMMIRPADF
Experimental: as §1, §2

FLAG-Tagged hAng2 = molecular target: T3, FLAG-Tagged hAng2 (human, UniProt O15123 19-496, limits assumed); assay: competitive ELISA: hTie2-Fc coated, 400 ng/ml FLAG-hAng2 plus scFv, anti-FLAG-HRP
T3 construct: also called FLAG-Ang2; non-mutated Ang2
T3 sequence: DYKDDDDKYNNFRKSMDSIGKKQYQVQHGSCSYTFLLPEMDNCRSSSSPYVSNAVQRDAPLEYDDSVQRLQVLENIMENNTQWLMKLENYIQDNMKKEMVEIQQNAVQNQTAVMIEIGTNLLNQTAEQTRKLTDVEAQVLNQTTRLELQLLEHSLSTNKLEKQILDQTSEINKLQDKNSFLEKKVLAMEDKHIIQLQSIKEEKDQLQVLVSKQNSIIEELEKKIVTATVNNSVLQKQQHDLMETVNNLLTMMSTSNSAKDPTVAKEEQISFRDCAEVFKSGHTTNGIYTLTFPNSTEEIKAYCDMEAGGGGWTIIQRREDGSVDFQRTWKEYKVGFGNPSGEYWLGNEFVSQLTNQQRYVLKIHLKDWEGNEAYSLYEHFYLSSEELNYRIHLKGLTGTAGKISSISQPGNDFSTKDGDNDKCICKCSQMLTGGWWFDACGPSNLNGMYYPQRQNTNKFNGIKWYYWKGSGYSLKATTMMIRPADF
Experimental: To verify molecular interaction of the bound assemblies, a competitive ELISA was performed. A 96-well MaxiSorp™ flat-bottom plate (Nunc) was coated with […] of hTie2-Fc (R&D Systems), which is a protein with the Fc of human IgG1 bound thereto. After that, the plate was washed five times with 0.05% (v/v) Tween-20-containing PBS (Phosphate Buffer Saline) and then blocked with 1% (v/v) BSA (Bovine serum albumin; Sigma)-containing PBS at a room temperature for 2 hours.
Thereafter, the plate was washed five times with 0.05% Tween-20-containing PBS and then, an HRP-conjugated anti-FLAG antibody (SIGMA) diluted in 1% (v/v) BSA-containing PBS at 1:5,000 ratio (v/v) was added in the amount of 100 μl (microliter) to each well to react at a room temperature for 1 hour, followed by washing five times with 0.1% (v/v) Tween-20-containing PBS. Finally, 100 μl (microliter) of TMB substrate (cell signal) was added to each well of the plate to induce color development at a room temperature for 3 min. Then, the reaction was ceased by the addition of 50 μl of 5N H₂SO₄ solution and OD450 values were measured on a plate reader (Molecular Devices).

Binder | Relative binding (%) with Mutant Ang2 compared to the binding with native Ang2 [1] [%] | Relative binding (%) with Mutant Ang2 compared to the binding with native Ang2 [2] [%] | IC50 (FLAG-Tagged hAng2) [nM]
B1 | 24 | 40 | 18.9
B2 | 91.6 | 96.1 | 6.6
B3 | 86.5 | 91.6 | 36.3
B4 | 85 | 78.1 | 39.7
B5 | 15 | 21.8 | 10
B6 | 97.3 | 95.1 | 9.9
B7 | 70 | 74.3 | 6.5
